Results as given in patent publication US20240368302A1 (NANOMAB TECHNOLOGY, published 2024).
Substitutions are numbered along the chain they refer to.

T1: mouse TROP2-Fc antigen protein (mouse, UniProt Q8BGV3 25-270, limits assumed)
T1 construct: not shown: Fc
T1 sequence (looked up): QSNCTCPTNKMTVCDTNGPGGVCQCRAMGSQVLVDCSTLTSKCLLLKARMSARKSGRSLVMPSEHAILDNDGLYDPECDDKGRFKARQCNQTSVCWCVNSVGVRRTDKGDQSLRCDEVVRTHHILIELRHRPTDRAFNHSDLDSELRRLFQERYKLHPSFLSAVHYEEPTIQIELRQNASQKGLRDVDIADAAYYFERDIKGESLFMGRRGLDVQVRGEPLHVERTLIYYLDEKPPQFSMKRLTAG

T2: human TROP2-Fc protein antigen (human, UniProt P09758 27-274)
T2 construct: extracellular domain; also called CRD + TY-1 + CPD; not shown: IgG Fc of the pFUSE-IgG plasmid
T2 sequence (looked up): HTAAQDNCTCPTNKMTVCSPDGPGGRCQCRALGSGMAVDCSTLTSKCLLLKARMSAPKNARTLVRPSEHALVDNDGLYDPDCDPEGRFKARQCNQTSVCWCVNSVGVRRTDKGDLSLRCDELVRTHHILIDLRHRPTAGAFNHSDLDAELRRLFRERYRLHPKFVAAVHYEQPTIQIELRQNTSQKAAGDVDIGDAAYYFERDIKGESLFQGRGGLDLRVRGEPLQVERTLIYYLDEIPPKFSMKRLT

T3: rhesus monkey TROP2-Fc antigen protein (rhesus monkey, UniProt A0A5F8AGB8 27-274)
T3 construct: not shown: Fc
T3 sequence: T2 sequence (looked up) with M36V, S67N, I204V

T4: Fc antigen protein of human TROP2 domain CPD (human, UniProt P09758 146-274, limits assumed)
T4 construct: domain: CPD; not shown: Fc
T4 sequence (looked up): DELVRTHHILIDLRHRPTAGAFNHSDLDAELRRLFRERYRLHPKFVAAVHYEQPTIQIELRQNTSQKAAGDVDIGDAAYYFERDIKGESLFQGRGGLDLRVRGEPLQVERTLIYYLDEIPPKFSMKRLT

T5: Fc antigen protein of human TROP2 domains TY-1 + CPD (human, UniProt P09758 70-274, limits assumed)
T5 construct: domain: TY-1 + CPD; not shown: Fc
T5 sequence (looked up): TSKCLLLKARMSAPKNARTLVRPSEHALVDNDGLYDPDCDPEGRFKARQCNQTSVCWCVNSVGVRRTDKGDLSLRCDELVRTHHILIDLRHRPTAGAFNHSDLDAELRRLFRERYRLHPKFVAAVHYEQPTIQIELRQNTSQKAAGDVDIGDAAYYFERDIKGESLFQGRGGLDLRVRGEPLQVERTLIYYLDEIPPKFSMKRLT

B1: MY1530-1-20 (VHH)
VHH: QVQLQESGGGSVLAGGSLRLSCTVSGSFVSSRSMAWFRQTPGKEREGVAAISQYGDPKYAGSVKGRFTMSRDNAKNTLLLQMNSLKPEDTAIYYCAAGEAWELATLSRSDYIYWGQGTQVTVSS
notes: Expressed in E. coli WK6 from vector pMECS, purified on a nickel column; also called MY1530-1-20 VHH; anti-TROP2 single domain antibody
B2: MY1530-2-53 (VHH)
VHH: QVQLQESGGGSVQAGGSLRLSCAVSGLTSSTTCMGWFRQAPGKEREGVAVIRSSGETTAADSVKGRFTISRDNAKNTLSLQMTSLKPEDTAMYYCAAAWPYSGCLLPLSSGDFTYWGQGTQVTVSS
notes: Expressed in E. coli WK6 from vector pMECS, purified on a nickel column; also called MY1530-2-53 VHH; anti-TROP2 single domain antibody
B3: MY1530-6-1 (VHH)
VHH: QVQLQESGGGSVQAGGSLRLSCAASGFPYSSYSMGWFRQAPGKEREGVAAIYTGGGSTYYAGSVKGRFTISQEHATNTLYLQMNSLKPEDTAMYYCAANMVDNGVISGIQALGVRYYNYWGQGTQVTVSS
notes: Expressed in E. coli WK6 from vector pMECS, purified on a nickel column; also called MY1530-6-1 VHH; anti-TROP2 single domain antibody
B4: MY1530-1-26 (VHH)
VHH: QVQLQESGGGSVQAGGSLRLSCVVSGYTTTRYSMAWFRQAPGKEREGVAGIDTDVLTTYKPSVEGRFTISRDSAKRTLYLQMNSLKPEDTAMYYCATGTGNFLALDPVWYNTWGQGTQVTVSS
notes: Expressed in E. coli WK6 from vector pMECS, purified on a nickel column; also called MY1530-1-26 VHH; anti-TROP2 single domain antibody
B5: MY1530-4-28 (VHH)
VHH: QVQLQESGGGSVQAGGSLRLSCAASGFSVSTTWMHWVRQAPGKGLEWVSRIAINDHTFYAESVKGRFTMSTDNAKNTVYLQMTSLKPEDTAVYYCSPYSDYRIRGQGTQVTVSS
notes: Expressed in E. coli WK6 from vector pMECS, purified on a nickel column; also called MY1530-4-28 VHH; anti-TROP2 single domain antibody
B6: MY1530-5-17 (VHH)
VHH: QVQLQESGGGSVQPGGSLRLSCVVSGYTVSSVCMAWFRQAPGMERELVAGFYHSGGTYYGDSVKGRFTASQDNAKNTLYLQMNSLKPEDTATYYCARARYPSSACGTSPSNYNIWGQGTQVTVSS
notes: Expressed in E. coli WK6 from vector pMECS, purified on a nickel column; also called MY1530-5-17 VHH; anti-TROP2 single domain antibody
B7: MY1530-5-54 (VHH)
VHH: B6 VHH with V24A, V29A, M43K, F51Y
notes: Expressed in E. coli WK6 from vector pMECS, purified on a nickel column; also called MY1530-5-54 VHH; anti-TROP2 single domain antibody
B8: MY1530-4-22 (VHH)
VHH: B6 VHH with P14A, R19K
notes: Expressed in E. coli WK6 from vector pMECS, purified on a nickel column; also called MY1530-4-22 VHH; anti-TROP2 single domain antibody

What follows are binders tested against T1, mouse TROP2-Fc antigen protein (assay: ELISA, plate coated with mouse TROP2-Fc).
B1: no binding.
B2: no binding.
B3: no binding.
B4: no binding.
B5: no binding.
B6: no binding.
B7: no binding.
B8: no binding.

Each binder was assayed against T2, human TROP2-Fc protein antigen (assay: SPR (Biacore 8K), human TROP2-Fc on CM-5 chip, VHH in flow).
Procedure: The fixed phase human TROP2-Fc antigen proteins were fixed on the surface of CM-5 sensing chip using carboxyl amino reaction. The anti-TROP2 single domain antibodies were diluted with HBS buffer to different concentrations, and the anti-TROP2 single domain antibodies were added at a flow rate of 30 μl/min, binding for 90 seconds, dissociating for 600 seconds, and the binding process between the anti-TROP2 single domain antibody and the antigen was observed. After rinsing with 10 mM glycine solution for chip regeneration, the next anti TROP2 single domain antibody assay was proceeded.
In the case of B1, the Kd is reported as 0.35 nM, the koff is reported as 0.000179 s⁻¹ and the kon is reported as 509000 M⁻¹ s⁻¹.
With B2 the Kd was 9.83 nM, the koff was 0.00443 s⁻¹ and the kon was 451000 M⁻¹ s⁻¹.
Binder B3 has a Kd of 0.21 nM, a koff of 0.000227 s⁻¹ and a kon of 1.09e+06 M⁻¹ s⁻¹.
With B4 the Kd was 1.89 nM, the koff was 0.00304 s⁻¹ and the kon was 1.61e+06 M⁻¹ s⁻¹.
B5 was tested, and the Kd was 4.89 nM, the koff was 0.000717 s⁻¹ and the kon was 147000 M⁻¹ s⁻¹.
In the case of B6, the Kd is reported as 0.27 nM, the koff is reported as 0.00011 s⁻¹ and the kon is reported as 405000 M⁻¹ s⁻¹.
B7 was tested, and the Kd was 0.2 nM, the koff was 8.99e-05 s⁻¹ and the kon was 449000 M⁻¹ s⁻¹.
For B8, the Kd was 0.73 nM, the koff was 0.000187 s⁻¹ and the kon was 257000 M⁻¹ s⁻¹.

Each binder was assayed against T2, human TROP2-Fc protein antigen (assay: ELISA, coated human TROP2-Fc, Kd calculated from absorbance).
B1 was tested, and the Kd was 1.13 nM.
B2 gave a Kd of 4.23 nM.
Work on B3 yielded a Kd of 1.51 nM.
Work on B4 yielded a Kd of 4.86 nM.
Binder B5 has a Kd of 1.2 nM.
Binder B6 has a Kd of 1.39 nM.
B7 gave a Kd of 1.28 nM.
In the case of B8, the Kd is reported as 1.29 nM.

What follows are binders tested against T3, rhesus monkey TROP2-Fc antigen protein (assay: ELISA, coated rhesus monkey TROP2-Fc, Kd calculated from absorbance).
Procedure: (§1) The ELISA plates were coated with TROP2-Fc antigen proteins from human, mouse, and rhesus monkey overnight at 4° C. The plates were washed for 4 times with PBS-T the next day, added with 1% BSA, and blocked at room temperature for 2 hours. The plates were washed for 4 times with PBS-T, added with the anti-TROP2 single domain antibodies diluted in gradient, and standing at 37° C. for 1 hour. The plates were washed for 4 times with PBS-T, added with mouse anti-His-HRP antibody, and standing at 37° C. for 1 hour. The plates were washed for 4 times with PBS-T, added with TMB soluble substrate, and standing at room temperature for 10 minutes.
Binder B1 has a Kd of 2.33 nM.
B2 was tested, and the Kd was 28.1 nM.
For B3, the Kd was 4.47 nM.
B4 gave a Kd of 29.4 nM.
B5 was tested, and the Kd was 1.38 nM.
For B6, the Kd was 1.78 nM.
With B7 the Kd was 1.73 nM.
With B8 the Kd was 1.67 nM.

The binders below were run against T4, Fc antigen protein of human TROP2 … (assay: ELISA, coated Fc protein of human TROP2 CPD, Kd calculated from absorbance).
Procedure: as §1, with “Fc” for “TROP2-Fc”, “of different human TROP2 domains” for “from human, mouse, and rhesus monkey”, “minutes. […] The anti-TROP2 single domain antibodies of the present invention bind to different TROP2 domains.” for “minutes.”
B6 was tested, and the Kd was 0.53 nM.
In the case of B7, the Kd is reported as 0.53 nM.
For B8, the Kd was 1.02 nM.

These binders were tested against T5, Fc antigen protein of human TROP2 … (assay: ELISA, coated Fc protein of human TROP2 TY-1 + CPD, Kd calculated from absorbance).
Procedure: as §1, with “Fc” for “TROP2-Fc”, “of different human TROP2 domains” for “from human, mouse, and rhesus monkey”, “minutes. […] The anti-TROP2 single domain antibodies of the present invention bind to different TROP2 domains.” for “minutes.”
With B3 the Kd was 2.14 nM.
Work on B6 yielded a Kd of 0.53 nM.
B7 was tested, and the Kd was 0.53 nM.
In the case of B8, the Kd is reported as 0.53 nM.

The binders below were run against T2, human TROP2-Fc protein antigen (assay: ELISA, coated Fc protein of human TROP2 CRD + TY-1 + CPD, Kd calculated from absorbance).
Procedure: as §1, with “Fc” for “TROP2-Fc”, “of different human TROP2 domains” for “from human, mouse, and rhesus monkey”, “minutes. […] The anti-TROP2 single domain antibodies of the present invention bind to different TROP2 domains.” for “minutes.”
B1 gave a Kd of 1.13 nM.
B2 gave a Kd of 4.23 nM.
Work on B3 yielded a Kd of 1.51 nM.
With B4 the Kd was 4.86 nM.
Work on B5 yielded a Kd of 1.2 nM.
Binder B6 has a Kd of 1.39 nM.
Work on B7 yielded a Kd of 1.28 nM.
Binder B8 has a Kd of 1.29 nM.
